Measurements as given in patent US20150273048A1.

Target: M2e4x-PR8HA fusion protein (four tandem repeats of M2e fused to A/PR8 HA) on recombinant M2e4x-PR8HA influenza virus (influenza A/PR/8/34 (H1N1)) (UniProt P03452)
Assay: ELISA on serially coated inactivated virus

Substance: Influenza A virus M2 monoclonal antibody 14C2 (Abcam Inc., Cambridge, Mass.)
- coating concentration at which reactivity was detected (ng/100 µl/well): 20
- fold M2e reactivity relative to parental wild type A/PR8 virus: 250 fold
